According to publication PMC3832543:
Values joined by “and” are separate entries in the source; they are usually repeats but may differ in a detail not shown here. Identical values can stand only once.

Target: MCL-1ES, wild type (amino acids 1-197), Flag-tagged (human)
Experiment: cross-linking; 293T cells; heavy membrane fraction cross-linked with glutaraldehyde, western blot; increasing MCL-1ES expression; also with MCL-1L over-expressed or knocked down

stoichiometry N: 2 and 3
Substance: MCL-1ES, wild type (amino acids 1-197), Flag-tagged (natural protein)
